Reference: the supplement of paper PMC10567573

B1: KLHDC10 (parent)
chain: CPIIRIPNRFLRGHRPPPARSGHR

Variants of: B1
Experiment: protein stability index of a GFP-peptide fusion (GPS, HEK-293T) (PSI 1-6); higher = more stable
Details: c terminus: a fixed tail appended
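Further: lentivirally expressed fusions sorted by FACS into six bins by GFP to DsRed ratio, PSI derived from sequencing read proportions per bin multiplied by bin number.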

Variant | protein stability index
CPIIRIPNRFKRGHRPPPARSGHR [L11K] | 3.08
CPIIRIPNRFMRGHRPPPARSGHR [L11M] | 2.89
CPIIRIPNRFQRGHRPPPARSGHR [L11Q] | 1.35
CPIIRIPNRFRRGHRPPPARSGHR [L11R] | 2.54
CPIIRIPNRFSRGHRPPPARSGHR [L11S] | 2.46
CPIIRIPNRFTRGHRPPPARSGHR [L11T] | 1.96
CPIIRIPNRFVRGHRPPPARSGHR [L11V] | 2.83
CPIIRIPNRFWRGHRPPPARSGHR [L11W] | 1.7
CPIIRIPNRFYRGHRPPPARSGHR [L11Y] | 2
CPIIRIPNRFLAGHRPPPARSGHR [R12A] | 1.71
CPIIRIPNRFLCGHRPPPARSGHR [R12C] | 1.28
CPIIRIPNRFLDGHRPPPARSGHR [R12D] | 1.92
CPIIRIPNRFLEGHRPPPARSGHR [R12E] | 2.47
CPIIRIPNRFLFGHRPPPARSGHR [R12F] | 1.75
CPIIRIPNRFLGGHRPPPARSGHR [R12G] | 1.8
CPIIRIPNRFLHGHRPPPARSGHR [R12H] | 2.69
CPIIRIPNRFLIGHRPPPARSGHR [R12I] | 2.32
CPIIRIPNRFLKGHRPPPARSGHR [R12K] | 2.09
CPIIRIPNRFLLGHRPPPARSGHR [R12L] | 2.25
CPIIRIPNRFLMGHRPPPARSGHR [R12M] | 1.06
CPIIRIPNRFLNGHRPPPARSGHR [R12N] | 2.27
CPIIRIPNRFLPGHRPPPARSGHR [R12P] | 1.63
CPIIRIPNRFLQGHRPPPARSGHR [R12Q] | 2.07
CPIIRIPNRFLSGHRPPPARSGHR [R12S] | 1.9

Variant | protein stability index
CPIIRIPNRFLTGHRPPPARSGHR [R12T] | 2.02
CPIIRIPNRFLVGHRPPPARSGHR [R12V] | 2.75
CPIIRIPNRFLWGHRPPPARSGHR [R12W] | 2.5
CPIIRIPNRFLYGHRPPPARSGHR [R12Y] | 2.43
CPIIRIPNRFLRAHRPPPARSGHR [G13A] | 2.21
CPIIRIPNRFLRCHRPPPARSGHR [G13C] | 1.53
CPIIRIPNRFLRDHRPPPARSGHR [G13D] | 1.55
CPIIRIPNRFLREHRPPPARSGHR [G13E] | 1.38
CPIIRIPNRFLRFHRPPPARSGHR [G13F] | 1.81
CPIIRIPNRFLRHHRPPPARSGHR [G13H] | 1.98
CPIIRIPNRFLRIHRPPPARSGHR [G13I] | 2.04
CPIIRIPNRFLRKHRPPPARSGHR [G13K] | 1.9
CPIIRIPNRFLRLHRPPPARSGHR [G13L] | 1.85
CPIIRIPNRFLRMHRPPPARSGHR [G13M] | 1.9
CPIIRIPNRFLRNHRPPPARSGHR [G13N] | 2.2
CPIIRIPNRFLRPHRPPPARSGHR [G13P] | 1.48
CPIIRIPNRFLRQHRPPPARSGHR [G13Q] | 2.36
CPIIRIPNRFLRRHRPPPARSGHR [G13R] | 1.74
CPIIRIPNRFLRTHRPPPARSGHR [G13T] | 2.65
CPIIRIPNRFLRWHRPPPARSGHR [G13W] | 2
CPIIRIPNRFLRYHRPPPARSGHR [G13Y] | 1.88
CPIIRIPNRFLRGARPPPARSGHR [H14A] | 1.96
CPIIRIPNRFLRGCRPPPARSGHR [H14C] | 1.48
CPIIRIPNRFLRGDRPPPARSGHR [H14D] | 1.69

Variant | protein stability index
CPIIRIPNRFLRGERPPPARSGHR [H14E] | 2.22
CPIIRIPNRFLRGFRPPPARSGHR [H14F] | 1.83
CPIIRIPNRFLRGGRPPPARSGHR [H14G] | 1.46
CPIIRIPNRFLRGIRPPPARSGHR [H14I] | 1.87
CPIIRIPNRFLRGKRPPPARSGHR [H14K] | 2.57
CPIIRIPNRFLRGLRPPPARSGHR [H14L] | 1.32
CPIIRIPNRFLRGMRPPPARSGHR [H14M] | 1.87
CPIIRIPNRFLRGNRPPPARSGHR [H14N] | 1.89
CPIIRIPNRFLRGPRPPPARSGHR [H14P] | 2.15
CPIIRIPNRFLRGRRPPPARSGHR [H14R] | 1.76
CPIIRIPNRFLRGSRPPPARSGHR [H14S] | 2.07
CPIIRIPNRFLRGTRPPPARSGHR [H14T] | 1.74
CPIIRIPNRFLRGVRPPPARSGHR [H14V] | 2.46
CPIIRIPNRFLRGWRPPPARSGHR [H14W] | 2.89
CPIIRIPNRFLRGYRPPPARSGHR [H14Y] | 1.33
CPIIRIPNRFLRGHAPPPARSGHR [R15A] | 1.3
CPIIRIPNRFLRGHCPPPARSGHR [R15C] | 1.68
CPIIRIPNRFLRGHDPPPARSGHR [R15D] | 2.11
CPIIRIPNRFLRGHEPPPARSGHR [R15E] | 1.92
CPIIRIPNRFLRGHFPPPARSGHR [R15F] | 1.43
CPIIRIPNRFLRGHGPPPARSGHR [R15G] | 1.69
CPIIRIPNRFLRGHIPPPARSGHR [R15I] | 1.28
CPIIRIPNRFLRGHKPPPARSGHR [R15K] | 2.19
CPIIRIPNRFLRGHLPPPARSGHR [R15L] | 1.05

Variant | protein stability index
CPIIRIPNRFLRGHMPPPARSGHR [R15M] | 1.84
CPIIRIPNRFLRGHNPPPARSGHR [R15N] | 2.3
CPIIRIPNRFLRGHQPPPARSGHR [R15Q] | 2.44
CPIIRIPNRFLRGHSPPPARSGHR [R15S] | 1.69
CPIIRIPNRFLRGHTPPPARSGHR [R15T] | 1.73
CPIIRIPNRFLRGHVPPPARSGHR [R15V] | 1.84
CPIIRIPNRFLRGHWPPPARSGHR [R15W] | 1.47
CPIIRIPNRFLRGHYPPPARSGHR [R15Y] | 1.51
CPIIRIPNRFLRGHRCPPARSGHR [P16C] | 2.5
CPIIRIPNRFLRGHRDPPARSGHR [P16D] | 1.72
CPIIRIPNRFLRGHREPPARSGHR [P16E] | 1.92
CPIIRIPNRFLRGHRFPPARSGHR [P16F] | 1.9
CPIIRIPNRFLRGHRGPPARSGHR [P16G] | 1.42
CPIIRIPNRFLRGHRHPPARSGHR [P16H] | 1.92
CPIIRIPNRFLRGHRIPPARSGHR [P16I] | 1.73
CPIIRIPNRFLRGHRKPPARSGHR [P16K] | 3.27
CPIIRIPNRFLRGHRLPPARSGHR [P16L] | 1.85
CPIIRIPNRFLRGHRMPPARSGHR [P16M] | 2.33
CPIIRIPNRFLRGHRNPPARSGHR [P16N] | 2.56
CPIIRIPNRFLRGHRQPPARSGHR [P16Q] | 2.1
CPIIRIPNRFLRGHRRPPARSGHR [P16R] | 1.2
CPIIRIPNRFLRGHRSPPARSGHR [P16S] | 2.12
